Usually Kd stands for the free concentration of one partner at which half of the binding sites on the other are occupied at equilibrium, for simple one-to-one binding.

The values below come from PMC7703752, “Proteome-level assessment of origin, prevalence and function of leucine-aspartic acid (LD) motifs” (Bioinformatics, 2019).

Assay [1] addresses T1, rat GIT1 (647-770) (rat, UniProt Q9Z272 647-770).
T1 construct: also called GIT1 FAH; GIT1 FAH domain; source: E. coli BL21, expressed as GST-fusion protein (pGex-4T1), purified as described previously (Schmalzigaug et al., 2007)
T1 sequence (looked up): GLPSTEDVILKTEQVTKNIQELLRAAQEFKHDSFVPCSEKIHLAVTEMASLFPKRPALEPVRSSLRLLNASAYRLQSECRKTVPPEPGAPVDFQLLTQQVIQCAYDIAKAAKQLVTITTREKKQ
Nature of the assay: fluorescence polarisation + MST; 'additional DA and MST experiments' with GIT1: GIT1 serially diluted (MST from 630 μM, standard capillaries, 25 °C), FITC-Ahx peptide 0.1 μM; 20 mM HEPES pH 7.5, 150 mM NaCl, 2 mM EDTA, 2 mM DTT, Tween-20. The settings on record: both partners purified.

Assay [2] deals with T2, FAT domain of human FAK (892-1052) (human, UniProt Q05397 892-1052).
T2 construct: focal adhesion kinase (FAK), human, FAT domain, residues 892-1052; 15N-labelled (M9 minimal medium) in the NMR titrations; also called FAK FAT; focal adhesion targeting domain; source: E. coli BL21, expressed as GST-fusion protein (pGexP2), purified as described previously (Arold et al., 2002)
T2 sequence (looked up): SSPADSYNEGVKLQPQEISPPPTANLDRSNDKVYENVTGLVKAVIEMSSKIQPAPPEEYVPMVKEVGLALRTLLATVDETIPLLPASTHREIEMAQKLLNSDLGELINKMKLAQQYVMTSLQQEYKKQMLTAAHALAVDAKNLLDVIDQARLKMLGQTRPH
The assay can be described thus: fluorescence polarisation + MST; the 'quantitative' methods, summed up in one sentence for each peptide: direct anisotropy (protein serially diluted, FITC-Ahx peptide 0.1 μM; 20 mM HEPES pH 7.5, 150 mM NaCl, 2 mM EDTA, 2 mM DTT, 0.005% Tween-20; room temperature) and MST (protein diluted from 560 μM FAT or 530 μM α-parvin, labelled peptide 0.1 μM, 0.05% Tween-20, 25 °C); ITC in selected cases. The following applies: both partners purified. (Fluorescence polarisation rises when a labelled molecule tumbles more slowly, as on binding a larger partner.)

Assay [3] has as its target T3, Human α-parvin-CHC (residues 242-372) (human, UniProt Q9NVD7 242-372).
T3 construct: α-parvin, human, C-terminal CH domain, residues 242-372; also called second CH domain of α-parvin; source: E. coli BL21, expressed as GST-fusion protein (pGex 6P1), purified as described previously (Lorenz et al., 2008)
T3 sequence (looked up): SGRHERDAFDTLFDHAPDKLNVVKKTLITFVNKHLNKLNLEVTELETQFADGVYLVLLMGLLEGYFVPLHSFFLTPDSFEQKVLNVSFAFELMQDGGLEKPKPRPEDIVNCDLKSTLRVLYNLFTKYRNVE
The description is as above. The settings on record: both partners purified.

Assay [4] addresses T4, FAT domain of human FAK (892–1052) (human, UniProt Q05397 892-1052).
T4 chain: T2 sequence (looked up)
Nature of the assay: FP.

The target in assay [5] is T5, Human α-parvin-CHC (residues 242–372) (human, UniProt Q9NVD7 242-372).
T5 chain: T3 sequence (looked up)
Nature of the assay: FP.

Assay [6] concerns the target T6, rat GIT1 (647-770) (rat, UniProt Q9Z272 647-770).
T6 chain: T1 sequence (looked up)
Nature of the assay: FP.

The target in assay [7] is T4, FAT domain of human FAK (892–1052). The assay can be described thus: ITC. (Isothermal titration calorimetry measures the heat released or taken up as one component is titrated into another.)
In assay [8] the target is T6, rat GIT1 (647-770). Nature of the assay: ITC.
Assay [9] addresses T4, FAT domain of human FAK (892–1052). Nature of the assay: MST.
Assay [10] addresses T5, Human α-parvin-CHC (residues 242–372). The assay can be described thus: MST.
Assay [11] has as its target T7, FAT domain of human FAK (892–1052) (human, UniProt Q05397 892-1052).
T7 construct: focal adhesion kinase (FAK), human, FAT domain, residues 892-1052; 15N-labelled for the NMR titrations; Purification and fate of the GST are told only in the Supplementary Material and in the cited work (Arold et al., 2002); also called FAK FAT; four-helix FAT domain from FAK; source: E. coli BL21, expressed as GST-fusion protein
T7 sequence (looked up): T2 sequence (looked up)
Nature of the assay: fluorescence polarisation + MST + ITC + other: differential scanning fluorimetry; synthesized peptides against recombinant LDBDs in vitro; direct anisotropy with labelled candidate peptides, anisotropy competition of unlabelled peptides against fluorescently labelled known LD motifs, ITC, MST and DSF summed up together; 25°C, 20 mM HEPES pH 7.5, 150 mM NaCl, 2 mM EDTA, 1 mM TCEP, unless stated otherwise. The following applies: both partners purified.

Assay [12] has as its target T8, Human α-parvin-CHC (residues 242–372) (human, UniProt Q9NVD7 242-372).
T8 construct: α-parvin, human, second CH domain (CHC), residues 242-372; Purification and fate of the GST are told only in the Supplementary Material and in the cited work (Lorenz et al., 2008); also called second CH domain of α-parvin; source: E. coli BL21, expressed as GST-fusion protein
T8 sequence (looked up): T3 sequence (looked up)
The description is as above. The settings on record: both partners purified.

The target of assay [13] is T6, rat GIT1 (647-770). The assay can be described thus: MST.
Assay [14] addresses T2, FAT domain of human FAK (892-1052). Nature of the assay: fluorescence polarisation + MST; the 'quantitative' methods, summed up in one sentence for each peptide: direct anisotropy (protein serially diluted, FITC-Ahx peptide 0.1 μM; 20 mM HEPES pH 7.5, 150 mM NaCl, 2 mM EDTA, 2 mM DTT, 0.005% Tween-20; room temperature) and MST (protein diluted from 560 μM FAT or 530 μM α-parvin, labelled peptide 0.1 μM, 0.05% Tween-20, 25 °C); ITC in selected cases. The following applies: both partners purified. This is another data set of the same source.

The target in assay [15] is T3, Human α-parvin-CHC (residues 242-372). The assay is described as above. The following applies: both partners purified. The source holds these as a separate data set.
Assay [16] addresses T2, FAT domain of human FAK (892-1052). The assay can be described thus: fluorescence polarisation; direct anisotropy: FAT or α-parvin titrated, FITC-Ahx-labelled LD4 at 0.1 μM; 20 mM HEPES pH 7.5, 150 mM NaCl, 2 mM EDTA, 2 mM DTT, 0.005% Tween-20; room temperature. The following applies: both partners purified.
Assay [17] has as its target T3, Human α-parvin-CHC (residues 242-372). The assay is described as above. The settings on record: both partners purified.
Assay [18] has the same target. The assay can be described thus: fluorescence polarisation; anisotropy competition assay (ACA): 10 μM FAT or 25 μM α-parvin with 0.1 μM FITC-Ahx-LD4; unlabelled peptide added at 100 and 250 μM. The settings on record: both partners purified.
Assay [19] concerns the target T2, FAT domain of human FAK (892-1052). The assay can be described thus: differential scanning fluorimetry; 10 μM protein, peptide at 100 and 250 μM, SYPRO Orange; 20 mM HEPES pH 7.5, 150 mM NaCl, 2 mM EDTA, 1 mM TCEP; 20 to 95 °C. The settings on record: both partners purified. In general terms: In DSF a fluorescence change marks the thermal transition of the protein.

For assay [20] the target is unchanged. Nature of the assay: fluorescence polarisation + other: differential scanning fluorimetry; the 'qualitative' methods, summed up in one sentence for each peptide: anisotropy competition (unlabelled peptide at 100 and 250 μM against 0.1 μM FITC-Ahx-LD4 with 10 μM FAT or 25 μM α-parvin) and DSF (10 μM protein, peptide at 100 and 250 μM; 20 mM HEPES pH 7.5, 150 mM NaCl, 2 mM EDTA, 1 mM TCEP). The following applies: both partners purified.

Assay [21] has as its target T3, Human α-parvin-CHC (residues 242-372). Described as above. The settings on record: both partners purified.

Where no end group is shown, it is not given here. The star is where a group is joined. FITC = O=C1OC2(c3ccc(O)cc3Oc3cc(O)ccc32)c2ccc(NC(=S)*)cc21; Ahx = NCCCCCC(=O)O

B1: RALGAPA1 LD motif peptide, FITC-Ahx-labelled (peptide)
peptide: {FITC-Ahx}-EDVLDELLQYLGVT
notes: core motif 1680-1689; labelled form, used in direct anisotropy and MST; also called RGPA1; source: synthetic peptide, bought: GenScript
For B1, in the assay with rat GIT1 (647-770) [1], the Kd was roughly 80 µM. Further, the binding result in [2] and in assay [3] was “binds” in each case.

B2: EPB41L5 (Band 4.1-like protein 5) LD motif peptide (peptide)
peptide: ATDELDALLASLTENLID
modifications: also: N-terminal FITC-Ahx only in labelled form
notes: predicted LD motif of human EPB41L5 (Band 4.1-like protein 5); also called E41L5; YMO1; source: synthetic peptide, bought: GenScript
As for B2, the Kd was determined as 2.7 µM in assay [4]; 28.2 µM in [5]; 83.6 µM with rat GIT1 (647-770) [6]; 6 µM in [7]; 39.3 µM in the assay with rat GIT1 (647-770) [8]; 13 µM in [9]. This molecule also had a Kd in assay [10] of 4 µM. For the same molecule, the binding result in assay [11] and in assay [12] was “binds” in each case.

B3: RALGAPA1 LD motif peptide (peptide)
peptide: EDVLDELLQYLGVT
modifications: also: N-terminal FITC-Ahx only in labelled form
notes: predicted LD motif of human RALGAPA1; also called RGPA1; source: synthetic peptide, bought: GenScript
In the case of B3, the Kd came to 43.6 µM in [4]; 49.4 µM in assay [5]; 88 µM with rat GIT1 (647-770) [6]; 42.5 µM in assay [9]; 25.7 µM in [10]; 77.5 µM in the assay with rat GIT1 (647-770) [13]. Moreover, the binding result in [11] and in [12] was “binds” each time.

B4: C16orf71 LD motif peptide, FITC-Ahx-labelled (peptide)
peptide: {FITC-Ahx}-EAWDLDDILQSLQGQ
notes: Uncharacterized protein C16orf71, human; core motif 267-276; labelled form, used in direct anisotropy and MST; also called CP071; source: synthetic peptide, bought: GenScript
For the molecule B4, the binding result in [14] and in assay [15] was “binds” each time.

B5: paxillin LD4 peptide, FITC-Ahx-labelled (peptide)
peptide: {FITC-Ahx}-SASSATRELDELMASLSD
notes: paxillin, human, LD4 motif with flanking residues; also called labelled LD4; FITC-Ahx-labelled LD4; source: synthetic peptide, bought: GenScript
In the case of B5, the dissociation constant (Kd) in assay [16] was determined as 10 µM; in [17] it was 25 µM.

B6: paxillin LD4 peptide, unlabelled (peptide)
peptide: SASSATRELDELMASLSD
notes: paxillin, human, LD4 motif with flanking residues; form without label, used in ACA, DSF, ITC and NMR; source: synthetic peptide, bought: GenScript
As to B6, the binding result in assay [18] and in assay [19] was “binds” throughout.

B7: C16orf71 LD motif peptide, unlabelled (peptide)
peptide: EAWDLDDILQSLQGQ
notes: Uncharacterized protein C16orf71, human; core motif 267-276; form without label, used in ACA and DSF; also called CP071; source: synthetic peptide, bought: GenScript
Regarding B7, the binding result in assay [20] and in [21] was “binds” each time.
